Read-outs that look alike come from different tables or passages of the source.
T1: full-length recombinant FC27 MSP2 (Plasmodium falciparum, UniProt P19260 21-261)
T1 chain: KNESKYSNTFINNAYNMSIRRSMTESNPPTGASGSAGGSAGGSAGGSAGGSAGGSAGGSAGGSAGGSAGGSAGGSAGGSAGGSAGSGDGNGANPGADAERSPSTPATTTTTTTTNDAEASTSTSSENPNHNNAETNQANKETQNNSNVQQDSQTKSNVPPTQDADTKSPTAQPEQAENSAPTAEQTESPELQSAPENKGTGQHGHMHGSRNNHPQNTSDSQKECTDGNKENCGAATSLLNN

T2: full-length recombinant 3D7 MSP2 (Plasmodium falciparum, UniProt P50498 21-246)
T2 chain: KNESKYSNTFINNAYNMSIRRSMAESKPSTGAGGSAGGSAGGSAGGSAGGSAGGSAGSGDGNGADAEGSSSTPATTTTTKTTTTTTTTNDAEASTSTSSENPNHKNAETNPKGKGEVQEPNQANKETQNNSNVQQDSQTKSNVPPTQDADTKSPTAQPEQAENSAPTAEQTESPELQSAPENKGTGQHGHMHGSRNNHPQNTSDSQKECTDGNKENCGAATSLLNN

B1: mouse monoclonal antibody 6D8 (antibody, V domains shown)
VH: QVQLQQSGDELVKPGASVKLSCTVSGFNIKDDFIHWMKQRPEQGLEWIGRIDPANGYTKYAPKFQDKATMTADTSSNTAYLQLSSLASEDAAVYYCATYGVAYWGQGTLVTVSA
VL: DIVLTQSPASLAVSLGQRATISCKASQSVDHDGDSYMNWFQQKPGQSPKLLIYAASNLESGIPARFSGSGSGTDFTLNIHPVEEEDAATYYCQQTNEDPYTFGGGTKLEIK
B2: 6D8 scFv (scFv, V domains shown)
VH: B1 VH
VL: B1 VL

Assays:
Test in all cases: ITC
[1] = biological target: T1, full-length recombinant FC27 MSP2
[2] = biological target: T2, full-length recombinant 3D7 MSP2
[3] = biological target: T1, full-length recombinant FC27 MSP2
[4] = biological target: T2, full-length recombinant 3D7 MSP2
[5] = biological target: B2

| Binder | Kd [1] [nM] | Kd [2] [nM] | Kd [3] [nM] | Kd [4] [nM] | Kd [5] [nM] |
| --- | --- | --- | --- | --- | --- |
| B1 | 16 | 64 | – | – | – |
| B2 | 13 | 61 | 13 | 61 | – |
| NAYNMSIRRSMAESKPS [3D7-MSP2_(14-30)] | – | – | – | – | 64 |
| NAYNMSIRRSMANEGSN [FC27-MSP2_(14-30)] | – | – | – | – | 16 |

Source: publication PMC4428071 (2015)
